# Results taken from patent US20240075096A1, “ANTIMICROBIAL PEPTIDE LIQUID COMPOSITION AND FORMULATION THEREOF” (priority 2021, published 2024).
# Legend:
# [1] = system: Staphylococcus aureus ATCC29213; assay: In vitro bacteriostatic and bactericidal tests (MIC, MBC); format: cell-based; settings: standard strain ATCC29213
# [2] = system: methicillin-resistant Staphylococcus aureus (MRSA) clinical isolates; assay: as above; format: cell-based; settings: MRSA clinical strains
# [3] = system: Methicillin-sensitive Staphylococcus aureus (MSSA) clinical isolates; assay: as above; format: cell-based; settings: MSSA clinical strains
# [4] = system: Methicillin-resistant coagulase-negative Staphylococcus (MRSCNS) clinical isolates; assay: as above; format: cell-based; settings: MRSCNS clinical strains
# [5] = system: Methicillin-sensitive coagulase-negative Staphylococcus (MSSCNS) clinical isolates; assay: as above; format: cell-based; settings: MSSCNS clinical strains
# [6] = Stability investigation of antimicrobial peptide compositions (trait, related substances and content by HPLC); format: physicochemical
# [7] = 4° C., 0 days, peptide 2‰, stabilizer 1% (Table 2)
# [8] = 4° C., 6 months, peptide 2‰, stabilizer 1% (Table 2)
# [9] = 4° C., 12 months, peptide 2‰, stabilizer 1% (Table 2)
# [10] = 4° C., 24 months, peptide 2‰, stabilizer 1% (Table 2)
# [11] = 4° C., 36 months, peptide 2‰, stabilizer 1% (Table 2)
# [12] = 25° C., 0 days, different mannitol systems (Table 3)
# [13] = 25° C., 0 days, peptide 2‰, stabilizer 1% (Table 1)
# [14] = 25° C., 1 month, peptide 2‰, stabilizer 1% (Table 1)
# [15] = 25° C., 3 months, different mannitol systems (Table 3)
# [16] = 25° C., 3 months, peptide 2‰, stabilizer 1% (Table 1)
# [17] = 25° C., 6 months, different mannitol systems (Table 3)
# [18] = 25° C., 6 months, peptide 2‰, stabilizer 1% (Table 1)
compound,measurement,setting,value
"CN[C@H](CC(C)C)C(=O)N[C@H]1C(=O)N[C@@H](CC(N)=O)C(=O)N[C@H]2C(=O)N[C@H]3C(=O)N[C@H](C(=O)N[C@H](C(=O)O)c4cc(O)cc(O)c4-c4cc3ccc4O)[C@H](O)c3ccc(c(Cl)c3)Oc3cc2cc(c3O[C@@H]2O[C@H](CO)[C@@H](O)[C@H](O)[C@H]2O[C@H]2C[C@](C)(N)[C@H](O)[C@H](C)O2)Oc2ccc(cc2Cl)[C@H]1O [Vancomycin, vancomycin]",MBC Concentration Range,[1],4 µg/mL
same,MIC Concentration Range,[1],1 µg/mL
same,MIC Concentration Range,[2],0.5 to 4 µg/mL
same,MIC Concentration Range,[3],0.5 to 4 µg/mL
same,MIC Concentration Range,[4],0.5 to 4 µg/mL
same,MIC Concentration Range,[5],0.5 to 4 µg/mL
"KWKSFLKTFKSAAKTVLHTALKAISS [antimicrobial peptide, tested alone as aqueous solution without stabilizer]",Content,[6]; [7],99.87%
same,Largest Single Impurity (Related Substance),[6]; [7],0.19%
same,Total Impurities (Related Substance),[6]; [7],0.32%
same,Trait,[6]; [7],colorless clear liquid
same,Content,[6]; [8],97.51%
same,Largest Single Impurity (Related Substance),[6]; [8],0.27%
same,Total Impurities (Related Substance),[6]; [8],0.58%
same,Trait,[6]; [8],colorless transparent
same,Content,[6]; [9],94.51%
same,Largest Single Impurity (Related Substance),[6]; [9],0.32%
same,Total Impurities (Related Substance),[6]; [9],0.68%
same,Trait,[6]; [9],colorless transparent
same,Content,[6]; [10],85.57%
same,Largest Single Impurity (Related Substance),[6]; [10],0.72%
same,Total Impurities (Related Substance),[6]; [10],2.01%
same,Trait,[6]; [10],colorless transparent
same,Content,[6]; [11],76.55%
same,Largest Single Impurity (Related Substance),[6]; [11],0.96%
same,Total Impurities (Related Substance),[6]; [11],3.02%
same,Trait,[6]; [11],colorless transparent
same,Content,[6]; [12],100.12%
same,Largest Single Impurity (Related Substance),[6]; [12],0.16%
same,Total Impurities (Related Substance),[6]; [12],0.30%
same,Trait,[6]; [12],colorless
same,Content,[6]; [13],99.87%
same,Largest Single Impurity (Related Substance),[6]; [13],0.19%
same,Total Impurities (Related Substance),[6]; [13],0.32%
same,Trait,[6]; [13],colorless clear liquid
same,Content,[6]; [14],98.51%
same,Largest Single Impurity (Related Substance),[6]; [14],0.25%
same,Total Impurities (Related Substance),[6]; [14],0.53%
same,Trait,[6]; [14],colorless transparent
same,Content,[6]; [15],98.42%
same,Largest Single Impurity (Related Substance),[6]; [15],0.26%
same,Total Impurities (Related Substance),[6]; [15],0.55%
same,Trait,[6]; [15],colorless
same,Content,[6]; [16],88.57%
same,Largest Single Impurity (Related Substance),[6]; [16],0.68%
same,Total Impurities (Related Substance),[6]; [16],1.96%
same,Trait,[6]; [16],colorless transparent
same,Content,[6]; [17],87.67%
same,Largest Single Impurity (Related Substance),[6]; [17],0.85%
same,Total Impurities (Related Substance),[6]; [17],1.99%
same,Trait,[6]; [17],colorless
same,Content,[6]; [18],78.88%
same,Largest Single Impurity (Related Substance),[6]; [18],0.98%
same,Total Impurities (Related Substance),[6]; [18],3.16%
same,Trait,[6]; [18],colorless transparent
